Assay results from patent publication US11219221B2 (FarmHannong Co., Ltd., priority 2017, dated 2022).

Test system: CyPPO17
Test: PPO enzyme activity of MBP-fused CyPPO17 wild type and variants
Type: biochemical, Thermosynechococcus sp. NK55a
Conditions: PPO enzyme activity relative to wild type; MBP-fused protein, 50 μM protoporphyrinogen IX, room temperature, 30 min
Description: Thus, PPO proteins of wild type and variants were expressed as fused to MBP and were used for experiments.
The following process for purification of PPO protein was performed in a 4° C. cold room. Amylose resin (NEB) was packed to 1.5×15 cm column (Bio-Rad, Econo Columns 1.5×15 cm, glass chromatography column, max. vol), and the obtained protein extracts were loaded to the column at a flow rate of 0.2 ml/min. The column was washed with 3 column volumes of buffer and the presence of protein in the washing solution was examined. When the protein was no longer detected, the washing procedure was terminated. Then, the MBP-PPO protein was eluted with approximately 2 column volumes of buffer containing 20 mM maltose. The protein concentration of each eluent was determined and the elution was stopped when the protein was no longer detected. Ten microliter of each fraction was investigated for protein quantification and SDS-PAGE analysis. The highly pure fractions of PPO protein variants were used for the enzyme assay.
Since protoporphyrinogen IX, a substrate of PPO protein, was not commercially available, it was chemically synthesized in the laboratory. Overall process was performed in dark under nitrogen stream. […] of protoporphyrin IX was dissolved in 20 ml of 20% (v/v) EtOH, and stirred under dark condition for 30 minutes. The obtained protoporphyrin IX solution was put into a 15 ml screw tube in an amount of 800 μl, and flushed with nitrogen gas for 5 minutes. To this, 1.5 g of sodium amalgam was added and vigorously shaken for 2 minutes. The lid was opened to exhaust hydrogen gas in the tube. Thereafter, the lid was closed and incubated for 3 minutes. The protoporphyrinogen IX solution was filtered using syringe and cellulose membrane filter. […] To determine the enzyme activity of PPO protein, a reaction mixture was prepared with the following composition (based on 10 ml): 50 mM Tris-Cl (pH 8.0); 50 mM NaCl; 0.04% (v/v) Tween 20; 40 mM glucose (0.072 g); 5 units glucose oxidase (16.6 mg); and 10 units catalase (1 μl).
Hundred and eighty microliters of a reaction mixture containing the purified PPO protein were placed in 96 well plates and 20 μl of […] were added. […] The reaction proceeded at room temperature for 30 min and the fluorescence of protoporphyrin IX was measured using Microplate reader (Sense, Hidex) (excitation: 405 nm; emission: 633 nm). […] To this, 2.7 N HCl was added, and the absorbance at 408 nm was measured. A standard curve was generated using standard protoporphyrin IX, and PPO activity was measured by calibration of protoporphyrin IX using the standard curve of protoporphyrin IX.
Activities of variants were presented relatively compared to that of wild type.

B1: F359M: CyPPO17 variant (protein)
chain: MEVDVAIVGGGLSGLSVAWRLQQSAPQYSGVLLEASDRLGGNITTQGAEGFVWELGPNSFAPTPALLQLIAEVGLHSELIRGDRHLPRYIYWRGELYPLEPTRPLALATSNLLSPWGKVRAALGALGFVPPYLGSGDESVNSFFRRHLGQEVAERLVAPFVSGVYAGDPQQLSAAAAFRRIAQLEKLGGGLIAGALRLRRQQPPKPRPPAEVQMRPGELGSFKEGLAALPRAIAQQLKAPVHLQTPVEAITPEPNGGYLLRSGEQTWQARSVVLATPAYQTAALVAPFQPAIARVLAAIPYPTVACVVLAYPAGLGRSVRPGFGVLIPRGQGIRTLGTIWSSCLFPQRTPAGWQVFTSMIGGATDPDLASLREEAIVQQVQQDLTRLLDLPAAKARLLGMKVWRRAIPQYLVGYPQQWQQVTHALSQTPGLFLCSNYAEGVALGDRVEHGNRTAAAVAAYLSGGQS
modifications: Synthetic (Protoporphyrinogen IX oxidase (CyPPO17) of Thermosynechococcus sp. NK55a)
notes: CyPPO17 variant
Activity (%): 90%

B2: F359T: CyPPO17 variant (protein)
chain: MEVDVAIVGGGLSGLSVAWRLQQSAPQYSGVLLEASDRLGGNITTQGAEGFVWELGPNSFAPTPALLQLIAEVGLHSELIRGDRHLPRYIYWRGELYPLEPTRPLALATSNLLSPWGKVRAALGALGFVPPYLGSGDESVNSFFRRHLGQEVAERLVAPFVSGVYAGDPQQLSAAAAFRRIAQLEKLGGGLIAGALRLRRQQPPKPRPPAEVQMRPGELGSFKEGLAALPRAIAQQLKAPVHLQTPVEAITPEPNGGYLLRSGEQTWQARSVVLATPAYQTAALVAPFQPAIARVLAAIPYPTVACVVLAYPAGLGRSVRPGFGVLIPRGQGIRTLGTIWSSCLFPQRTPAGWQVFTSTIGGATDPDLASLREEAIVQQVQQDLTRLLDLPAAKARLLGMKVWRRAIPQYLVGYPQQWQQVTHALSQTPGLFLCSNYAEGVALGDRVEHGNRTAAAVAAYLSGGQS
modifications: Synthetic (Protoporphyrinogen IX oxidase (CyPPO17) of Thermosynechococcus sp. NK55a)
notes: CyPPO17 variant
Activity (%): 56%

B3: R88A: CyPPO17 variant (protein)
chain: MEVDVAIVGGGLSGLSVAWRLQQSAPQYSGVLLEASDRLGGNITTQGAEGFVWELGPNSFAPTPALLQLIAEVGLHSELIRGDRHLPAYIYWRGELYPLEPTRPLALATSNLLSPWGKVRAALGALGFVPPYLGSGDESVNSFFRRHLGQEVAERLVAPFVSGVYAGDPQQLSAAAAFRRIAQLEKLGGGLIAGALRLRRQQPPKPRPPAEVQMRPGELGSFKEGLAALPRAIAQQLKAPVHLQTPVEAITPEPNGGYLLRSGEQTWQARSVVLATPAYQTAALVAPFQPAIARVLAAIPYPTVACVVLAYPAGLGRSVRPGFGVLIPRGQGIRTLGTIWSSCLFPQRTPAGWQVFTSFIGGATDPDLASLREEAIVQQVQQDLTRLLDLPAAKARLLGMKVWRRAIPQYLVGYPQQWQQVTHALSQTPGLFLCSNYAEGVALGDRVEHGNRTAAAVAAYLSGGQS
modifications: Synthetic (Protoporphyrinogen IX oxidase (CyPPO17) of Thermosynechococcus sp. NK55a)
notes: CyPPO17 variant
Activity (%): 70%

B4: F359I: CyPPO17 variant (protein)
chain: MEVDVAIVGGGLSGLSVAWRLQQSAPQYSGVLLEASDRLGGNITTQGAEGFVWELGPNSFAPTPALLQLIAEVGLHSELIRGDRHLPRYIYWRGELYPLEPTRPLALATSNLLSPWGKVRAALGALGFVPPYLGSGDESVNSFFRRHLGQEVAERLVAPFVSGVYAGDPQQLSAAAAFRRIAQLEKLGGGLIAGALRLRRQQPPKPRPPAEVQMRPGELGSFKEGLAALPRAIAQQLKAPVHLQTPVEAITPEPNGGYLLRSGEQTWQARSVVLATPAYQTAALVAPFQPAIARVLAAIPYPTVACVVLAYPAGLGRSVRPGFGVLIPRGQGIRTLGTIWSSCLFPQRTPAGWQVFTSIIGGATDPDLASLREEAIVQQVQQDLTRLLDLPAAKARLLGMKVWRRAIPQYLVGYPQQWQQVTHALSQTPGLFLCSNYAEGVALGDRVEHGNRTAAAVAAYLSGGQS
modifications: Synthetic (Protoporphyrinogen IX oxidase (CyPPO17) of Thermosynechococcus sp. NK55a)
notes: CyPPO17 variant
Activity (%): 92%

B5: F160A: CyPPO17 variant (protein)
chain: MEVDVAIVGGGLSGLSVAWRLQQSAPQYSGVLLEASDRLGGNITTQGAEGFVWELGPNSFAPTPALLQLIAEVGLHSELIRGDRHLPRYIYWRGELYPLEPTRPLALATSNLLSPWGKVRAALGALGFVPPYLGSGDESVNSFFRRHLGQEVAERLVAPAVSGVYAGDPQQLSAAAAFRRIAQLEKLGGGLIAGALRLRRQQPPKPRPPAEVQMRPGELGSFKEGLAALPRAIAQQLKAPVHLQTPVEAITPEPNGGYLLRSGEQTWQARSVVLATPAYQTAALVAPFQPAIARVLAAIPYPTVACVVLAYPAGLGRSVRPGFGVLIPRGQGIRTLGTIWSSCLFPQRTPAGWQVFTSFIGGATDPDLASLREEAIVQQVQQDLTRLLDLPAAKARLLGMKVWRRAIPQYLVGYPQQWQQVTHALSQTPGLFLCSNYAEGVALGDRVEHGNRTAAAVAAYLSGGQS
modifications: Synthetic (Protoporphyrinogen IX oxidase (CyPPO17) of Thermosynechococcus sp. NK55a)
notes: CyPPO17 variant
Activity (%): 63%
